Laboratory results published in IntAct's records for PubMed 20168298.

Molecular target: T1, pkd2_human PKD2 (UniProt Q13563)
T1 sequence: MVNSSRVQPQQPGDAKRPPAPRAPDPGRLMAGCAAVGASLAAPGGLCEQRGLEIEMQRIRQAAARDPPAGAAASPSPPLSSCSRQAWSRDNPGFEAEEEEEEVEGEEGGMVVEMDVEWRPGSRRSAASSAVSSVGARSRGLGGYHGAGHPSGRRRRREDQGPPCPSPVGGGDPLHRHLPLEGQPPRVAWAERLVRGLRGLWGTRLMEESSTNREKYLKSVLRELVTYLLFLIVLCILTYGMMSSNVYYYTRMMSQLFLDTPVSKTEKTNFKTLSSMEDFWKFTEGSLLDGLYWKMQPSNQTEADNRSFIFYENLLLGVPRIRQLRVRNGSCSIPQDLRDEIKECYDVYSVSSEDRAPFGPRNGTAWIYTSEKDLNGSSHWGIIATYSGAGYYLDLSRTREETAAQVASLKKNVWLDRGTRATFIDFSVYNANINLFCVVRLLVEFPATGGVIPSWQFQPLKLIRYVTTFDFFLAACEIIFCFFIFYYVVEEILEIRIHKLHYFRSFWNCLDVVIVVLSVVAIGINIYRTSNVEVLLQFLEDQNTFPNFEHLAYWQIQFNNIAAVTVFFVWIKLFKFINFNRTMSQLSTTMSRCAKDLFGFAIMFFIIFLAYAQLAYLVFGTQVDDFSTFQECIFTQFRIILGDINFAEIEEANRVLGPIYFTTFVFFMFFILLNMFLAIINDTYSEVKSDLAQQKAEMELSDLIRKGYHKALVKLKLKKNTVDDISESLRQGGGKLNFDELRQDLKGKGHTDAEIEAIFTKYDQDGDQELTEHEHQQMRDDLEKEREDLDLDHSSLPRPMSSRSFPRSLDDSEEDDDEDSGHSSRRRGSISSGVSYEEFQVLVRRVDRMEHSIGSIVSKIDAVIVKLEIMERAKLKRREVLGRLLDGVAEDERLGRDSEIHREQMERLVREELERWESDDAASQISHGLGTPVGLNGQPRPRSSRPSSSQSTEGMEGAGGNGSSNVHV

Substance: Polycystin-1 (Homo sapiens) (from UniProt P98161) Q4225P
- effect of a mutation on the interaction: disrupting interaction
